Reference: patent US20060193821, “Aptamers to the human IL-12 cytokine family and their use as autoimmune disease therapeutics” (published 2006)

B1: ARC1621 (mixed)
RNA: ACAGGCAAGUAAUUGGGGAGUGCGGGCGGGGUGU
modifications: 2'-OMe C,U and G16,G17,G24,G25,G30,G31; other A,G deoxy; PS 3-4,4-5; 3'-idT [PS 3-4,4-5; 2'-OMe at 2,6,10,13,14,16,17,21,23,24,25,27,30,31,32,34; other A,G deoxy; 3'-inverted dT at 35]
B2: ARC1428 (mixed)
RNA: B1 RNA
modifications: 2'-OMe C,U and A3; other A,G deoxy; 3'-idT
B3: ARC1443 (mixed)
RNA: B1 RNA
modifications: 2'-OMe C,U and G24; other A,G deoxy; 3'-idT
B4: ARC1446 (mixed)
RNA: B1 RNA
modifications: 2'-OMe C,U and G28; other A,G deoxy; 3'-idT
B5: ARC1448 (mixed)
RNA: B1 RNA
modifications: 2'-OMe C,U and G30; other A,G deoxy; 3'-idT
B6: ARC1464 (mixed)
RNA: B1 RNA
modifications: deoxy A,G; 2'-OMe C,U; PS 31-32; 3'-idT [2'-OMe C,U at 2,6,10,13,14,21,23,27,32,34; deoxy A,G elsewhere; PS 31-32 (N = PS linkage, left out); 3'-inverted dT at 35]
B7: ARC1447 (mixed)
RNA: B1 RNA
modifications: 2'-OMe C,U and G29; other A,G deoxy; 3'-idT
B8: ARC1449 (mixed)
RNA: B1 RNA
modifications: 2'-OMe C,U and G31; other A,G deoxy; 3'-idT
B9: ARC1450 (mixed)
RNA: B1 RNA
modifications: 2'-OMe C,U and G33; other A,G deoxy; 3'-idT
B10: ARC1441 (mixed)
RNA: B1 RNA
modifications: 2'-OMe C,U and G20; other A,G deoxy; 3'-idT
B11: ARC1454 (mixed)
RNA: B1 RNA
modifications: deoxy A,G; 2'-OMe C,U; PS 4-5; 3'-idT [PS linkage 4-5; 2'-OMe C,U at 2,6,10,13,14,21,23,27,32,34; all A,G 2'-deoxy; 3'-inverted dT at 35]
B12: ARC1433 (mixed)
RNA: B1 RNA
modifications: 2'-OMe C,U and G9; other A,G deoxy; 3'-idT
B13: ARC1442 (mixed)
RNA: B1 RNA
modifications: 2'-OMe C,U and G22; other A,G deoxy; 3'-idT
B14: ARC1445 (mixed)
RNA: B1 RNA
modifications: 2'-OMe C,U and G26; other A,G deoxy; 3'-idT
B15: ARC1458 (mixed)
RNA: B1 RNA
modifications: deoxy A,G; 2'-OMe C,U; PS 17-18; 3'-idT [PS linkage 17-18; 2'-OMe C,U at 2,6,10,13,14,21,23,27,32,34; all A,G 2'-deoxy; 3'-inverted dT at 35]
B16: ARC1427 (mixed)
RNA: B1 RNA
modifications: 2'-OMe C,U and A1; other A,G deoxy; 3'-idT
B17: ARC1434 (mixed)
RNA: B1 RNA
modifications: 2'-OMe C,U and A11; other A,G deoxy; 3'-idT
B18: ARC1457 (mixed)
RNA: B1 RNA
modifications: deoxy A,G; 2'-OMe C,U; PS 16-17; 3'-idT [PS linkage 16-17; 2'-OMe C,U at 2,6,10,13,14,21,23,27,32,34; all A,G 2'-deoxy; 3'-inverted dT at 35]
B19: ARC1456 (mixed)
RNA: B1 RNA
modifications: deoxy A,G; 2'-OMe C,U; PS 15-16; 3'-idT [PS linkage 15-16; 2'-OMe C,U at 2,6,10,13,14,21,23,27,32,34; all A,G 2'-deoxy; 3'-inverted dT at 35]
B20: ARC1463 (mixed)
RNA: B1 RNA
modifications: deoxy A,G; 2'-OMe C,U; PS 30-31; 3'-idT [2'-OMe C,U at 2,6,10,13,14,21,23,27,32,34; deoxy A,G elsewhere; PS 30-31 (N = PS linkage, left out); 3'-inverted dT at 35]
B21: ARC1461 (mixed)
RNA: B1 RNA
modifications: deoxy A,G; 2'-OMe C,U; PS 25-26; 3'-idT [PS linkage 25-26; 2'-OMe C,U at 2,6,10,13,14,21,23,27,32,34; all A,G 2'-deoxy; 3'-inverted dT at 35]
B22: ARC1432 (mixed)
RNA: B1 RNA
modifications: 2'-OMe C,U and A8; other A,G deoxy; 3'-idT
B23: ARC1437 (mixed)
RNA: B1 RNA
modifications: 2'-OMe C,U and G16; other A,G deoxy; 3'-idT
B24: ARC1541 (mixed)
RNA: B1 RNA
modifications: 2'-OMe C,U and G18,A19,G20,G22; other A,G deoxy; 3'-idT
B25: ARC1459 (mixed)
RNA: B1 RNA
modifications: deoxy A,G; 2'-OMe C,U; PS 23-24; 3'-idT [PS linkage 23-24; 2'-OMe C,U at 2,6,10,13,14,21,23,27,32,34; all A,G 2'-deoxy; 3'-inverted dT at 35]
B26: ARC1444 (mixed)
RNA: B1 RNA
modifications: 2'-OMe C,U and G25; other A,G deoxy; 3'-idT
B27: ARC1453 (mixed)
RNA: B1 RNA
modifications: deoxy A,G; 2'-OMe C,U; PS 3-4; 3'-idT [PS linkage 3-4; 2'-OMe C,U at 2,6,10,13,14,21,23,27,32,34; all A,G 2'-deoxy; 3'-inverted dT at 35]
B28: ARC1542 (mixed)
RNA: B1 RNA
modifications: 2'-OMe C,U and G26,G28,G29; other A,G deoxy; 3'-idT
B29: ARC1439 (mixed)
RNA: B1 RNA
modifications: 2'-OMe C,U and G18; other A,G deoxy; 3'-idT
B30: ARC1460 (mixed)
RNA: B1 RNA
modifications: deoxy A,G; 2'-OMe C,U; PS 24-25; 3'-idT [PS linkage 24-25; 2'-OMe C,U at 2,6,10,13,14,21,23,27,32,34; all A,G 2'-deoxy; 3'-inverted dT at 35]
B31: ARC1543 (mixed)
RNA: B1 RNA
modifications: 2'-OMe C,U and A1,A8,G9,A11,G18,A19,G20,G22,G26,G28,G29,G33; other A,G deoxy; 3'-idT
B32: ARC1438 (mixed)
RNA: B1 RNA
modifications: 2'-OMe C,U and G17; other A,G deoxy; 3'-idT
B33: ARC1539 (mixed)
RNA: B1 RNA
modifications: 2'-OMe C,U and A1,G33; other A,G deoxy; 3'-idT
B34: ARC1465 (mixed)
RNA: B1 RNA
modifications: deoxy A,G; 2'-OMe C,U; PS 11-12,19-20,20-21,21-22,22-23,26-27; 3'-idT [2'-OMe C,U at 2,6,10,13,14,21,23,27,32,34; deoxy A,G elsewhere; PS 11-12,19-20,20-21,21-22,22-23,26-27 (N = PS linkage, left out); 3'-inverted dT at 35]
B35: ARC1440 (mixed)
RNA: B1 RNA
modifications: 2'-OMe C,U and A19; other A,G deoxy; 3'-idT
B36: ARC1540 (mixed)
RNA: B1 RNA
modifications: 2'-OMe C,U and A8,G9,A11; other A,G deoxy; 3'-idT
B37: ARC1470 (mixed)
RNA: GGCAAGUAAUUGGGGAGUGCGGGCGGGG
modifications: deoxy A,G; 2'-OMe C,U; six PS; 3'-idT [2'-OMe C,U at 3,7,10,11,18,20,24; deoxy A,G elsewhere; PS 8-9,16-17,17-18,18-19,19-20,23-24 (N = PS linkage, left out); 3'-inverted dT at 29]
B38: ARC1435 (mixed)
RNA: B1 RNA
modifications: 2'-OMe C,U and A12; other A,G deoxy; 3'-idT
B39: ARC1451 (mixed)
RNA: B1 RNA
modifications: 2'-OMe C,U and A1,A3,G33; other A,G deoxy; 3'-idT
B40: ARC1455 (mixed)
RNA: B1 RNA
modifications: deoxy A,G; 2'-OMe C,U; PS 5-6; 3'-idT [PS linkage 5-6; 2'-OMe C,U at 2,6,10,13,14,21,23,27,32,34; all A,G 2'-deoxy; 3'-inverted dT at 35]
B41: ARC1430 (mixed)
RNA: B1 RNA
modifications: 2'-OMe C,U and G5; other A,G deoxy; 3'-idT
B42: ARC1452 (mixed)
RNA: B1 RNA
modifications: 2'-OMe C,U and A7,A8,G15; other A,G deoxy; 3'-idT
B43: ARC1471 (mixed)
RNA: GGCAAGUAAUUGGGGAGUGCGGGCGGGG
modifications: 2'-OMe C,U and three purines (A7,A8,G15 of ARC979); six PS; 3'-idT [2'-OMe C,U at 3,7,10,11,18,20,24; 2'-OMe purines A4,A5,G12; deoxy A,G elsewhere; PS 8-9,16-17,17-18,18-19,19-20,23-24 (N = PS linkage, left out); 3'-inverted dT at 29]
B44: ARC1429 (mixed)
RNA: B1 RNA
modifications: 2'-OMe C,U and G4; other A,G deoxy; 3'-idT
B45: ARC1462 (mixed)
RNA: B1 RNA
modifications: deoxy A,G; 2'-OMe C,U; PS 29-30; 3'-idT [2'-OMe C,U at 2,6,10,13,14,21,23,27,32,34; deoxy A,G elsewhere; PS 29-30 (N = PS linkage, left out); 3'-inverted dT at 35]
B46: AMX86-B5 (ssRNA)
RNA: GGGAAAAGCGAAUCAUACACAAGAUUAGUGCGUGUGUUGAAAGGGCUCAUAAUGUCAGUAUCGAGCUCCGCCAGAGACCAACCGAGAA
modifications: 2'-F C,U

Target: T1, IL-23 (human, p19/p40 heterodimer) (Homo sapiens, UniProt Q9NPF7;P29460 SEQ:20-189,SEQ:23-328)
Test: filter; DPBS Ca Mg
Settings: tags: R&D Systems, carrier free
Description: The dot blot binding assay previously described was used to characterize the relative potency of the majority of the aptamers synthesized. For KD determination, chemically synthesized aptamers were purified using denaturing polyacrylamide gel electrophoresis, 5′end labeled with γ-³²P ATP and were tested for direct binding to full human IL-23. An 8 point protein titration was used in the dot blot binding assay (either {100 nM, 30 nM, 10 nM, 3 nM, 1 nM, 300 pM, 100 pM, 0 pM} or {10 nM, 3 nM, 1 nM, 300 pM, 100 pM, 30 pM, 10 pM, 0 pM}) in Dulbecco's PBS (with Mg⁺⁺ and Ca⁺⁺) with 0.1 mg/mL BSA. KD values were calculated by fitting the equation y=(max/(1+K/protein))+yint using KaleidaGraph (KaleidaGraph v. 3.51, Synergy Software). Sequences of the ARC979 derivatives synthesized, purified and assayed for binding to IL-23 as well as the results of the protein binding characterization are tabulated below in Tables 29 and 30.

T1 sequence (Q9NPF7 20-189, chain 1 of 2): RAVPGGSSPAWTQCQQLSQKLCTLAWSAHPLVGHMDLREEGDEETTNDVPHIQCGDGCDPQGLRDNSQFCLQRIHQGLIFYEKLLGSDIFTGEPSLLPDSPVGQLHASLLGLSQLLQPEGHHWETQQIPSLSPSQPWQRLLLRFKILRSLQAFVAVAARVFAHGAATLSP
T1 sequence (P29460 23-328, chain 2 of 2): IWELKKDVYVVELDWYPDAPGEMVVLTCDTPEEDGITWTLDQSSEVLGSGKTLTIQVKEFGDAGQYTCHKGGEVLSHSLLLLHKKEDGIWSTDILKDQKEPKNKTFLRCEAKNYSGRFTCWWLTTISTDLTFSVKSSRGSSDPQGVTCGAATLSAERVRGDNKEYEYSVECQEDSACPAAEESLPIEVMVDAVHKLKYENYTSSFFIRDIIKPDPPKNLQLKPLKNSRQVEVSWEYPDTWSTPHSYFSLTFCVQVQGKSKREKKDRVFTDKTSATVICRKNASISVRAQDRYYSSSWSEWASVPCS

Binder | Kd [nM]
B1 | 0.5
B2 | 1.8
B3 | 2
B4 | 2.1
B5 | 2.3
B6 | 2.4
B7 | 2.5
B8 | 2.6
B9 | 2.6
B10 | 2.7
B11 | 2.7
B12 | 2.8
B13 | 2.8
B14 | 2.8
B15 | 2.9
B16 | 3
B17 | 3
B18 | 3
B19 | 3.2
B20 | 3.6
B21 | 3.7
B22 | 3.8
B23 | 3.9

Binder | Kd [nM]
B24 | 3.9
B25 | 4
B26 | 4.4
B27 | 4.4
B28 | 1.2
B29 | 4.8
B30 | 5.8
B31 | 5.9
B32 | 6
B33 | 6.6
B34 | 1.3
B35 | 6.7
B36 | 7.5
B37 | 8.6
B38 | 9.8
B39 | 10.2
B40 | 1.6
B41 | 14.2
B42 | 18.9
B43 | 23.5
B44 | 29.5
B45 | 1.7

Target: T1, IL-23 (human, p19/p40 heterodimer)
Test: filter; SHMCK, tRNA
Settings: tags: R&D Systems, carrier free
Description: Monitoring Progress of rRfY Selection. Dot blot binding assays were performed throughout the selections to monitor the protein binding affinity of the pools. Trace ³²P-labeled RNA was combined with a dilution series of h-IL-23 and incubated at room temperature for 30 minutes in 1×SHMCK (20 mM Hepes, 120 mM NaCl, 5 mM KCl, 1 mM MgCl₂, 1 mM CaCl₂, pH 7.4) plus 0.1 mg/mL tRNA for a final volume of 20 μL. The binding reactions were analyzed by nitrocellulose filtration using a Minifold I dot-blot, 96-well vacuum filtration manifold (Schleicher & Schuell, Keene, N.H.). A three-layer filtration medium was used, consisting (from top to bottom) of Protran nitrocellulose (Schleicher & Schuell), Hybond-P nylon (Amersham Biosciences) and GB002 gel blot paper (Schleicher & Schuell). RNA that is bound to protein is captured on the nitrocellulose filter, whereas the non-protein bound RNA is captured on the nylon filter. The gel blot paper was included simply as a supporting medium for the other filters. Following filtration, the filter layers were separated, dried and exposed on a phosphor screen (Amersham Biosciences, Piscataway, N.J.) and quantified using a Storm 860 Phosphorimager® blot imaging system (Amersham Biosciences).
When a significant positive ratio of binding of RNA in the presence of h-IL-23 versus in the absence of h-IL-23 was seen, the pools were cloned using a TOPO TA cloning kit (Invitrogen, Carlsbad, Calif.) according to the manufacturer's instructions. For the h-IL-23 and X-IL-23 selections, the Round 8 pool templates were cloned, and 32 individual clones from each selections were assayed in a 1-point dot blot screen (+/−75 nM h-IL-23, as well as a separate screen at +/−75 nM h-IL-12). For the PN-IL-23 selection, the Round 10 pool was cloned and sequenced, and 8 unique clones were assayed for protein binding in a 1-point dot blot screen (+/−200 nM h-IL-23 and a separate screen at +/−200 nM h-IL-12). Subsequently, the Round 10 PN-IL-23 pool was re-cloned for further sequences, as well as the R12 PN-IL-23 pool, and the clones were assayed for protein binding in a 1 point do blot screen (+/−100 nM h-IL-23 or +/−200 nM h-IL-12).

Binder | Kd [nM]
B46 | 196

Target: IL-12 (human, p35/p40 heterodimer) (Homo sapiens, UniProt P29459;P29460 SEQ:57-253,SEQ:23-328)
Test: filter; no significant binding
Settings: not given

Chain of IL-12 (human, p35/p40 heterodimer) (P29459 23-219, chain 1 of 2): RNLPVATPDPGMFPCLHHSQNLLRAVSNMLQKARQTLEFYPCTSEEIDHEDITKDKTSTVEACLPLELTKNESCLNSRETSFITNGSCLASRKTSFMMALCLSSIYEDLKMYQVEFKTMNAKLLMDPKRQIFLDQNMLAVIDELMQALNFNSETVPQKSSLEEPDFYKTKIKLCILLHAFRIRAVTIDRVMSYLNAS
Chain of IL-12 (human, p35/p40 heterodimer) (P29460 23-328, chain 2 of 2): as the sequence (P29460 23-328, chain 2 of 2) above

Binder | binding result
B46 | no binding
